Positions count from the first letter of the chain named. Names and notes keep the numbering of the source.

The target of assay [1] is T1, recombinant human soluble gpNMB (recombinant human gpNMB-FLAG-His) (human, UniProt Q14956 23-498).
T1 sequence: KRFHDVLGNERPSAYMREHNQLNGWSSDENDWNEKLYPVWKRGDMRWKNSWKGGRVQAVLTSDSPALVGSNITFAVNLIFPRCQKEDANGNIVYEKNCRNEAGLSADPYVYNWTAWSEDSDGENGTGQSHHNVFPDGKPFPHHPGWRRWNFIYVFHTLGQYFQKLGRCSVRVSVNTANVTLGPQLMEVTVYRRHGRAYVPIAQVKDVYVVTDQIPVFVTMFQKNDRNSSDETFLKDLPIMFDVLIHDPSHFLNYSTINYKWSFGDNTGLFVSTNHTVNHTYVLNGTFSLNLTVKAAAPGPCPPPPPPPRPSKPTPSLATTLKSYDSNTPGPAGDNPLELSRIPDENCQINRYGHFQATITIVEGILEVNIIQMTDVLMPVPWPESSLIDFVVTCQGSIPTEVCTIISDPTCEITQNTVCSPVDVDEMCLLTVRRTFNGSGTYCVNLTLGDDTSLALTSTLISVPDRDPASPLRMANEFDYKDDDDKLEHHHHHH
Put plainly: antigen ELISA.

Assay [2] deals with T1, recombinant human soluble gpNMB …. Put plainly: antigen ELISA, vs hGPN18-2_H2L3.

B1: hGPN18-2_H2L3 VL I29A (antibody, V domains shown)
VH: QVQLVQSGPGLVQPTQTLTLTCSFSGFSLSTSVMGVGWIRQPSGKGLEWLADIWWDDDKDYNPSLKSRLTISKDTSKNQVVLTMTNMDTVDTATYYCARTYYSNYEYYGMDYWGQGTLVTVSS
VL: DIVMTQSPDSLAVSLGERATINCRSSQTAILSNGNTYLEWYQQKPGQPPKLLIYKVSNRFSGVPDRFSGSGSGTDFTLTISSLQAEDVAVYYCFQGSHVPFTFGSGTKLEIKR
Regarding B1, the EC50 in assay [1] is 6.04 nM. The Relative binding activity in assay [2] worked out at 0.75.

B2: hGPN18-2_H2L3 VL V99A (antibody, V domains shown)
VH: B1 VH
VL: B1 VL with A29I, V99A
B2: the concentration for a half-maximal effect (EC50) in assay [1] came out at 9.93 nM. Moreover, the Relative binding activity in assay [2] was 0.81.

B3: hGPN18-2_H2L3 VL L31A (antibody, V domains shown)
VH: B1 VH
VL: B1 VL with A29I, L31A
In the case of B3, in assay [1], the concentration for a half-maximal effect (EC50) came to 20.7 nM. In assay [2], the Relative binding activity came to 0.41.

B4: hGPN18-2_H2L3 VL L38A (antibody, V domains shown)
VH: B1 VH
VL: B1 VL with A29I, L38A
Consider B4, for which, in assay [1], the EC50 came to 4.15 nM. In addition, the Relative binding activity in assay [2] is 1.06.

B5: hGPN18-2_H2L3 VL K55A (antibody, V domains shown)
VH: B1 VH
VL: B1 VL with A29I, K55A
Take B5: in assay [1], the concentration for a half-maximal effect (EC50) was 48.3 nM. Besides, the Relative binding activity in assay [2] came out at 0.31.

B6: hGPN18-2_H2L3 VL N58A (antibody, V domains shown)
VH: B1 VH
VL: B1 VL with A29I, N58A
For the molecule B6, the concentration for a half-maximal effect (EC50) in assay [1] worked out at 2.86 nM. For the same molecule, the Relative binding activity in assay [2] was 1.04.

B7: hGPN18-2_H2L3 VL Q95A (antibody, V domains shown)
VH: B1 VH
VL: B1 VL with A29I, Q95A
For the molecule B7, the EC50 in assay [1] was determined as 5.49 nM. In addition, in assay [2], the Relative binding activity is 0.79.

B8: hGPN18-2_H2L3 VL T28A (antibody, V domains shown)
VH: B1 VH
VL: B1 VL with T28A, A29I
As to B8, the EC50 in assay [1] was determined as 2.91 nM. Besides, the Relative binding activity in assay [2] was 1.05.

B9: hGPN18-2_H2L3 VL N35A (antibody, V domains shown)
VH: B1 VH
VL: B1 VL with A29I, N35A
As to B9, the EC50 in assay [1] turned out to be 3.08 nM. Also, in assay [2], the Relative binding activity turned out to be 1.11.

B10: hGPN18-2_H2L3 VL R59A (antibody, V domains shown)
VH: B1 VH
VL: B1 VL with A29I, R59A
As for B10, the concentration giving a half-maximal response (EC50) in assay [1] was 2.36 nM. The Relative binding activity in assay [2] was 1.11.

B11: hGPN18-2_H2L3 VL R24A (antibody, V domains shown)
VH: B1 VH
VL: B1 VL with R24A, A29I
Take B11: in assay [1], the half-maximal effective concentration (EC50) worked out at 4.73 nM. Further, in assay [2], the Relative binding activity was 1.04.

B12: hGPN18-2_H2L3 VL T102A (antibody, V domains shown)
VH: B1 VH
VL: B1 VL with A29I, T102A
As to B12, the concentration giving a half-maximal response (EC50) in assay [1] came out at 4.73 nM. Moreover, in assay [2], the Relative binding activity was 0.81.

B13: hGPN18-2_H2L3 VL V56A (antibody, V domains shown)
VH: B1 VH
VL: B1 VL with A29I, V56A
B13: in assay [1], the EC50 was 2.99 nM. Further, the Relative binding activity in assay [2] is 1.07.

B14: hGPN18-2_H2L3 VL P100A (antibody, V domains shown)
VH: B1 VH
VL: B1 VL with A29I, P100A
On to B14, for which the concentration giving a half-maximal response (EC50) in assay [1] stood at 4.22 nM. Also, the Relative binding activity in assay [2] was 0.84.

B15: hGPN18-2_H2L3 VL Q27A (antibody, V domains shown)
VH: B1 VH
VL: B1 VL with Q27A, A29I
Consider B15, for which the concentration for a half-maximal effect (EC50) in assay [1] stood at 4 nM. For the same molecule, in assay [2], the Relative binding activity was determined as 1.04.

B16: hGPN18-2_H2L3 VL S61A (antibody, V domains shown)
VH: B1 VH
VL: B1 VL with A29I, S61A
In the case of B16, the EC50 in assay [1] amounted to 3.63 nM. Also, the Relative binding activity in assay [2] stood at 0.94.

B17: hGPN18-2_H2L3 VL S57A (antibody, V domains shown)
VH: B1 VH
VL: B1 VL with A29I, S57A
For the molecule B17, the EC50 in assay [1] was determined as 3.14 nM. Further, the Relative binding activity in assay [2] worked out at 1.05.

B18: hGPN18-2_H2L3 VL Y37A (antibody, V domains shown)
VH: B1 VH
VL: B1 VL with A29I, Y37A
With B18, in assay [1], the concentration giving a half-maximal response (EC50) amounted to 27.1 nM. The Relative binding activity in assay [2] is 0.37.

B19: hGPN18-2_H2L3 VL T36A (antibody, V domains shown)
VH: B1 VH
VL: B1 VL with A29I, T36A
Turning to B19, the EC50 in assay [1] amounted to 4.74 nM. The Relative binding activity in assay [2] was 1.06.

B20: hGPN18-2_H2L3 VL I30A (antibody, V domains shown)
VH: B1 VH
VL: B1 VL with A29I, I30A
B20: in assay [1], the EC50 was determined as 4.1 nM. Further, the Relative binding activity in assay [2] amounted to 1.

B21: hGPN18-2_H2L3 VL S25A (antibody, V domains shown)
VH: B1 VH
VL: B1 VL with S25A, A29I
Turning to B21, the 50% effective concentration (EC50) in assay [1] is 3.76 nM. The Relative binding activity in assay [2] is 1.01.

B22: hGPN18-2_H2L3 VL S32A (antibody, V domains shown)
VH: B1 VH
VL: B1 VL with A29I, S32A
Turning to B22, the EC50 in assay [1] came out at 8.67 nM. Besides, the Relative binding activity in assay [2] was 0.92.

B23: hGPN18-2_H2L3 VL N33A (antibody, V domains shown)
VH: B1 VH
VL: B1 VL with A29I, N33A
As to B23, the EC50 in assay [1] came to 3.66 nM. In addition, in assay [2], the Relative binding activity came out at 0.82.

B24: hGPN18-2_H2L3 VL S97A (antibody, V domains shown)
VH: B1 VH
VL: B1 VL with A29I, S97A
On to B24, for which the EC50 in assay [1] was determined as 3.29 nM. The Relative binding activity in assay [2] came out at 1.04.

B25: hGPN18-2_H2L3 VL S26A (antibody, V domains shown)
VH: B1 VH
VL: B1 VL with S26A, A29I
For B25, the 50% effective concentration (EC50) in assay [1] amounted to 3.14 nM. Moreover, the Relative binding activity in assay [2] is 1.03.

These data come from patent EP4772193A1 (Teijin Pharma Limited, dated 2026).
